# Assay results: patent US20240132559
# Tests used:
# ZF17-MQ1 (synthetic) = ZF17-MQ1 (synthetic) (UniProt P15840); assay: cell_activity; settings: LL2 cells
# ZF16-MQ1 (synthetic) = ZF16-MQ1 (synthetic) (UniProt P15840); assay: cell_activity; settings: LL2 cells
# Sequence of ZF16-MQ1 (synthetic) (P15840 other isoform, or with tags, fused parts or gaps): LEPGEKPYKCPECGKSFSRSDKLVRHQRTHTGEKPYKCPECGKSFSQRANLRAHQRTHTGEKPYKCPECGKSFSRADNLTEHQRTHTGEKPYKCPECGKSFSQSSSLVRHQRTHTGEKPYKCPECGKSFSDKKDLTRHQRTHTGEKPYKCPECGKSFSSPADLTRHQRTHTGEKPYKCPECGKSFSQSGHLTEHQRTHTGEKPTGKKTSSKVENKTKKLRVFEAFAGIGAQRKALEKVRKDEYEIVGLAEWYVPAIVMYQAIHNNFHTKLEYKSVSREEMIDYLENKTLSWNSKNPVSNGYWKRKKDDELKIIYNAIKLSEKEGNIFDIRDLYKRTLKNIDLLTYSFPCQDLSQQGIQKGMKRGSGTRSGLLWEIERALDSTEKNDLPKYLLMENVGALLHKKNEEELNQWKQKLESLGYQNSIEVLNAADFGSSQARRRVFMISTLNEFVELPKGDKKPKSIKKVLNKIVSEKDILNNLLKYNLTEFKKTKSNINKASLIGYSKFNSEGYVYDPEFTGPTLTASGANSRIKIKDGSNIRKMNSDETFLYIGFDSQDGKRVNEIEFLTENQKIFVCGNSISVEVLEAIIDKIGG
# Sequence of ZF17-MQ1 (synthetic) (P15840 other isoform, or with tags, fused parts or gaps): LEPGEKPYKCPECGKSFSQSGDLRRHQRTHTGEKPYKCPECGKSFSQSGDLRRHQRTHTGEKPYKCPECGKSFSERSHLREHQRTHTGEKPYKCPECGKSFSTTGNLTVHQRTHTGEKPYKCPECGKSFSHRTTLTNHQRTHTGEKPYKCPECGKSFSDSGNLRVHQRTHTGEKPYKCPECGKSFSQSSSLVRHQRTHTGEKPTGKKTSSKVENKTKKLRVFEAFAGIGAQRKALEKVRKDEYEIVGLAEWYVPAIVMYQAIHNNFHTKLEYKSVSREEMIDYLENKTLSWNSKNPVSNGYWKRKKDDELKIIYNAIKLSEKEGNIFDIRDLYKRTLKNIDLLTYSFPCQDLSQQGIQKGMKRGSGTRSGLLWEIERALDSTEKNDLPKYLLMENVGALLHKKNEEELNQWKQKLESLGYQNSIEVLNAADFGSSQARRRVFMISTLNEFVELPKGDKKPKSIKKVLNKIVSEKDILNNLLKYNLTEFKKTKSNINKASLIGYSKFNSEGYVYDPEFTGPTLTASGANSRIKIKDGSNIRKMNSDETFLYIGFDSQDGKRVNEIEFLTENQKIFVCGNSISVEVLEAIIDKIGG
substance,measurement,setting,value
mouse Myc genomic locus,activity (% MYC mRNA reduction),ZF17-MQ1 (synthetic),> 99.9
same,activity (% MYC mRNA reduction),ZF16-MQ1 (synthetic),74
